From US20230265151A1, “GIP/GLP1 CO-AGONIST COMPOUNDS” (priority 2020, published 2023)
Substitutions are numbered along the chain they refer to. *1 amine or outer side, *2 acyl side, *3 side chain or, on linkers, in order; H or OH if unused. Where no end group is shown, it is not given here. Side-chain parts run from the residue outwards. [ ]: non-standard residue; d: D form. The star is where a group is joined. γGlu = O=C(O)[C@H](CCC(=O)[*:2])N[*:1]; C14 diacid = O=C(O)CCCCCCCCCCCCC(=O)*; αMeY = C[C@](N)(Cc1ccc(O)cc1)C(=O)O; αMeF = C[C@](N)(Cc1ccccc1)C(=O)O; αMeL = CC(C)C[C@](C)(N)C(=O)O; Orn = NCCC[C@H](N)C(=O)O; AEEA = NCCOCCOCC(=O)O; Aib = CC(C)(N)C(=O)O

T1: human glucose-dependent insulinotropic polypeptide (GIP) receptor (human, UniProt P48546 22-466)
T1 sequence (looked up): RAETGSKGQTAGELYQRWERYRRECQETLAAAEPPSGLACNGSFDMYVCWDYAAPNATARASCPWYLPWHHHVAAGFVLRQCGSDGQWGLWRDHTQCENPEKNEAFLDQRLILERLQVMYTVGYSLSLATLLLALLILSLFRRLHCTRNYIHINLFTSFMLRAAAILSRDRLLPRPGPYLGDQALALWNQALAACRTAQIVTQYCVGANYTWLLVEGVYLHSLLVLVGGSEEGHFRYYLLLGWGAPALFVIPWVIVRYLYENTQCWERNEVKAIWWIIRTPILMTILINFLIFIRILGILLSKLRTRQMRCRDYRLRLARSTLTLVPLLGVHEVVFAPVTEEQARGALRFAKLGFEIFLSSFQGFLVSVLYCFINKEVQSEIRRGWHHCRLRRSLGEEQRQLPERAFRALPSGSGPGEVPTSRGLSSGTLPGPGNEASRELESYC

B1: Y-Aib-EGT-αMeF(2F)-TSD-4Pal-SI-αMeL-LD-Orn-K((2-[2-(2-Amino-ethoxy)-ethoxy]-acetyl)2-(γ-Glu)-CO-(CH2)12-CO2H)AQ-Aib-EFI-(D-Glu)-αMeY-LIEGGP S SGAPPP … (peptide)
peptide: YXEGTXTSDXSIXLDXKAQXEFIXXLIEGGPSSGAPPPSK
modifications: Aib2, αMeF(2F)6, 4Pal10, αMeL13, Orn16, Aib20, D-Glu24, αMeY25; acylated K17, K40 (groups as in name); C-terminal amide
B2: Y-Aib-EGT-αMeF(2F)-TSD-4Pal-SI-αMeL-LD-Orn-K((2-[2-(2-Amino-ethoxy)-ethoxy]-acetyl)2-(γ-Glu)-CO-(CH2)14-CH3)AQ-Aib-EFI-(D-Glu)-αMeY-LIEGGPSSGAPPPSK((2-[2-(2-Ami … (peptide)
peptide: B1 peptide
modifications: Aib2, αMeF(2F)6, 4Pal10, αMeL13, Orn16, Aib20, D-Glu24, αMeY25; acylated K17, K40 (groups as in name); C-terminal amide
B3: Example 180 (peptide)
peptide: Y[Aib]EGT[αMeF]TSDV[Aib]I[αMeL]LD[Orn]K([AEEA-AEEA-γGlu-C14 diacid])AQ[Aib]EFI[dE][αMeY]LIEGGK([AEEA-AEEA-γGlu-C14 diacid])SSGAPPPS-NH2
modifications: N-terminus assumed
SMILES: CC[C@H](C)[C@H](NC(=O)[C@H](CC(C)C)NC(=O)[C@](C)(Cc1ccc(O)cc1)NC(=O)[C@@H](CCC(=O)O)NC(=O)[C@@H](NC(=O)[C@H](Cc1ccccc1)NC(=O)[C@H](CCC(=O)O)NC(=O)C(C)(C)NC(=O)[C@H](CCC(N)=O)NC(=O)[C@H](C)NC(=O)[C@H](CCCCNC(=O)COCCOCCNC(=O)COCCOCCNC(=O)CC[C@H](NC(=O)CCCCCCCCCCCCC(=O)O)C(=O)O)NC(=O)[C@H](CCCN)NC(=O)[C@H](CC(=O)O)NC(=O)[C@H](CC(C)C)NC(=O)[C@](C)(CC(C)C)NC(=O)[C@@H](NC(=O)C(C)(C)NC(=O)[C@@H](NC(=O)[C@H](CC(=O)O)NC(=O)[C@H](CO)NC(=O)[C@@H](NC(=O)[C@](C)(Cc1ccccc1)NC(=O)[C@@H](NC(=O)CNC(=O)[C@H](CCC(=O)O)NC(=O)C(C)(C)NC(=O)[C@@H](N)Cc1ccc(O)cc1)[C@@H](C)O)[C@@H](C)O)C(C)C)[C@@H](C)CC)[C@@H](C)CC)C(=O)N[C@@H](CCC(=O)O)C(=O)NCC(=O)NCC(=O)N[C@@H](CCCCNC(=O)COCCOCCNC(=O)COCCOCCNC(=O)CC[C@H](NC(=O)CCCCCCCCCCCCC(=O)O)C(=O)O)C(=O)N[C@@H](CO)C(=O)N[C@@H](CO)C(=O)NCC(=O)N[C@@H](C)C(=O)N1CCC[C@H]1C(=O)N1CCC[C@H]1C(=O)N1CCC[C@H]1C(=O)N[C@@H](CO)C(N)=O
B4: Y-Aib-EGT-αMeF(2F)-TSD-4Pal-SI-αMeL-LD-Orn-K((2-[2-(2-Amino-ethoxy)-ethoxy]-acetyl)2-(γ-Glu)-CO-(CH2)12-CO2H)AQ-Aib-EFI-(D-Glu)-αMeY-LIEGGK((2-[2-(2-Amino-ethox … (peptide)
peptide: YXEGTXTSDXSIXLDXKAQXEFIXXLIEGGKSSGAPPPS
modifications: Aib2, αMeF(2F)6, 4Pal10, αMeL13, Orn16, Aib20, D-Glu24, αMeY25; acylated K17, K31 (groups as in name); C-terminal amide
B5: Y-Aib-EGT-αMeF(2F)-TSD-4Pal-SI-αMeL-LD-Orn-K((2-[2-(2-Amino-ethoxy)-ethoxy]-acetyl)2-(γ-Glu)-CO-(CH2)10-CH3)AQ-Aib-EFI-(D-Glu)-αMeY-LIEGGK((2-[2-(2-Amino-ethoxy … (peptide)
peptide: B4 peptide
modifications: Aib2, αMeF(2F)6, 4Pal10, αMeL13, Orn16, Aib20, D-Glu24, αMeY25; acylated K17, K31 (groups as in name); C-terminal amide
B6: Y-Aib-EGT-αMeF(2F)-TSD-4Pal-SI-αMeL-LD-Orn-K((εK)-(γ-Glu)-(γ-Glu)-CO-(CH2)12-CO2H)AQ-Aib-EFI-(D-Glu)-αMeY-LIEGGK((εK)-(γ-Glu)-(γ-Glu)-CO-(CH2)12-CO2H)SSGAPPPS-N … (peptide)
peptide: B4 peptide
modifications: Aib2, αMeF(2F)6, 4Pal10, αMeL13, Orn16, Aib20, D-Glu24, αMeY25; acylated K17, K31 (groups as in name); C-terminal amide
B7: Y-Aib-EGT-αMeF(2F)-TSD-4Pal-SI-αMeL-LD-Orn-K((2-[2-(2-Amino-ethoxy)-ethoxy]-acetyl)2-(γ-Glu)-CO-(CH2)12-CO2H)AQ-Aib-EFI-(D-Glu)-αMeY-LIK((2-[2-(2-Amino-ethoxy)- … (peptide)
peptide: B4 peptide with E28K, K31P
modifications: Aib2, αMeF(2F)6, 4Pal10, αMeL13, Orn16, Aib20, D-Glu24, αMeY25; acylated K17, K28 (groups as in name); C-terminal amide
B8: Y-Aib-EGT-αMeF(2F)-TSD-4Pal-SI-αMeL-LD-Orn-K((εK)-(2-[2-(2-Amino-ethoxy)-ethoxy]-acetyl)-(γ-Glu)-CO-(CH2)12-CO2H)AQ-Aib-EFI-(D-Glu)-αMeY-LIEGGK((εK)-(2-[2-(2-Am … (peptide)
peptide: B4 peptide
modifications: Aib2, αMeF(2F)6, 4Pal10, αMeL13, Orn16, Aib20, D-Glu24, αMeY25; acylated K17, K31 (groups as in name); C-terminal amide
B9: Y-Aib-EGT-αMeF(2F)-TSD-4Pal-SI-αMeL-LD-Orn-K((2-[2-(2-Amino-ethoxy)-ethoxy]-acetyl)2-(εK)-(γ-Glu)-CO-(CH2)12-CO2H)AQ-Aib-EFI-(D-Glu)-αMeY-LIEGGK((2-[2-(2-Amino- … (peptide)
peptide: B4 peptide
modifications: Aib2, αMeF(2F)6, 4Pal10, αMeL13, Orn16, Aib20, D-Glu24, αMeY25; acylated K17, K31 (groups as in name); C-terminal amide
B10: Y-Aib-EGT-αMeF(2F)-TSD-4Pal-SI-αMeL-LD-Orn-K((2-[2-(2-Amino-ethoxy)-ethoxy]-acetyl)2-(γ-Glu)-(4-(4-iodophenyl)butanoyl))AQ-Aib-EFI-(D-Glu)-αMeY-LIEGGK((2-[2-(2- … (peptide)
peptide: B4 peptide
modifications: Aib2, αMeF(2F)6, 4Pal10, αMeL13, Orn16, Aib20, D-Glu24, αMeY25; acylated K17, K31 (groups as in name); C-terminal amide
B11: Y-Aib-EGT-αMeF(2F)-TSD-4Pal-SI-αMeL-LD-Orn-K((2-[2-(2-Amino-ethoxy)-ethoxy]-acetyl)-(εK)-(γ-Glu)-CO-(CH2)12-CO2H)AQ-Aib-EFI-(D-Glu)-αMeY-LIEGGK((2-[2-(2-Amino-e … (peptide)
peptide: B4 peptide
modifications: Aib2, αMeF(2F)6, 4Pal10, αMeL13, Orn16, Aib20, D-Glu24, αMeY25; acylated K17, K31 (groups as in name); C-terminal amide
B12: Y-Aib-EGT-αMeF(2F)-TSD-4Pal-SI-αMeL-LD-Orn-K((2-[2-(2-Amino-ethoxy)-ethoxy]-acetyl)2-(γ-Glu)-CO-(CH2)12-CO2H)AQ-Aib-EFIK((2-[2-(2-Amino-ethoxy)-ethoxy]-acetyl)2 … (peptide)
peptide: B4 peptide with X24K, K31P
modifications: Aib2, αMeF(2F)6, 4Pal10, αMeL13, Orn16, Aib20, αMeY25; acylated K17, K24 (groups as in name); C-terminal amide
B13: Y-Aib-EGT-αMeF(2F)-TSD-4Pal-SI-αMeL-LD-Orn-K((2-[2-(2-Amino-ethoxy)-ethoxy]-acetyl)2-(εK)-CO-(CH2)12-CO2H)AQ-Aib-EFI-(D-Glu)-αMeY-LIEGGK((2-[2-(2-Amino-ethoxy)- … (peptide)
peptide: B4 peptide
modifications: Aib2, αMeF(2F)6, 4Pal10, αMeL13, Orn16, Aib20, D-Glu24, αMeY25; acylated K17, K31 (groups as in name); C-terminal amide
B14: Y-Aib-EGT-αMeF(2F)-TSD-4Pal-SI-αMeL-LD-Orn-K((2-[2-(2-Amino-ethoxy)-ethoxy]-acetyl)2-(γ-Glu)-(10-(4-carboxyphenoxy)decanoyl))AQ-Aib-EFI-(D-Glu)-αMeY-LIEGGK((2-[ … (peptide)
peptide: B4 peptide
modifications: Aib2, αMeF(2F)6, 4Pal10, αMeL13, Orn16, Aib20, D-Glu24, αMeY25; acylated K17, K31 (groups as in name); C-terminal amide
B15: Y-Aib-EGT-αMeF(2F)-TSD-4Pal-SI-αMeL-LD-Orn-K((2-[2-(2-Amino-ethoxy)-ethoxy]-acetyl)-(γ-Glu)-CO-(CH2)10-CH3)AQ-Aib-EFI-(D-Glu)-αMeY-LIEGGK((2-[2-(2-Amino-ethoxy) … (peptide)
peptide: B4 peptide
modifications: Aib2, αMeF(2F)6, 4Pal10, αMeL13, Orn16, Aib20, D-Glu24, αMeY25; acylated K17, K31 (groups as in name); C-terminal amide
B16: Y-Aib-EGT-αMeF(2F)-TSD-4Pal-SI-αMeL-LD-Orn-K((2-[2-(2-Amino-ethoxy)-ethoxy]-acetyl)3-(γ-Glu)-CO-(CH2)12-CO2H)AQ-Aib-EFI-(D-Glu)-αMeY-LIEGGK((2-[2-(2-Amino-ethox … (peptide)
peptide: B4 peptide
modifications: Aib2, αMeF(2F)6, 4Pal10, αMeL13, Orn16, Aib20, D-Glu24, αMeY25; acylated K17, K31 (groups as in name); C-terminal amide
B17: Y-Aib-EGT-αMeF(2F)-TSD-4Pal-SI-αMeL-LD-Orn-K((2-[2-(2-Amino-ethoxy)-ethoxy]-acetyl)2-(γ-Glu)-CO-(CH2)14-CH3)AQ-Aib-EFI-(D-Glu)-αMeY-LIK((2-[2-(2-Amino-ethoxy)-e … (peptide)
peptide: B4 peptide with E28K, K31P
modifications: Aib2, αMeF(2F)6, 4Pal10, αMeL13, Orn16, Aib20, D-Glu24, αMeY25; acylated K17, K28 (groups as in name); C-terminal amide
B18: Y-Aib-EGT-αMeF(2F)-TSD-4Pal-SI-αMeL-LD-Orn-K((2-[2-(2-Amino-ethoxy)-ethoxy]-acetyl)-(γ-Glu)-CO-(CH2)14-CH3)AQ-Aib-EFI-(D-Glu)-αMeY-LIEGGK((2-[2-(2-Amino-ethoxy) … (peptide)
peptide: B4 peptide
modifications: Aib2, αMeF(2F)6, 4Pal10, αMeL13, Orn16, Aib20, D-Glu24, αMeY25; acylated K17, K31 (groups as in name); C-terminal amide

What was measured:
Assay in all cases: cell-based or functional assay
[1] = target: human glucagon receptor (human, UniProt P47871 26-477)
[2] = target: T1, human glucose-dependent insulinotropic …
[3] = target: human glucagon-like peptide-1 (GLP-1) receptor (human, UniProt P43220 24-463)

Binder	cAMP EC50 (1.0% HSA) [1]	other results
B1	> 9.95 µM	–
B2	> 9.95 µM	–
B3	–	cAMP EC50 [2]: 0.000224 µM; cAMP Emax [2]: 86.8%; cAMP EC50 [3]: 0.00026 µM
B4	> 9.95 µM	–
B5	> 9.95 µM	–
B6	> 9.95 µM	–
B7	> 9.95 µM	–
B8	> 9.95 µM	–
B9	> 9.95 µM	–
B10	> 9.95 µM	–
B11	> 9.95 µM	–
B12	> 9.95 µM	–
B13	> 9.95 µM	–
B14	> 9.95 µM	–
B15	> 9.95 µM	–
B16	> 9.95 µM	–
B17	> 9.95 µM	–
B18	> 9.95 µM	–
